± gives the standard deviation of the averaged measurements.
The sequences below were run on Saccharomyces cerevisiae (assay: protein stability index of tFT-peptide fusion (C-terminal peptide) (PSI (0-1 scale)); higher = more stable (slower turnover)). Conditions: genetic background: wild type; temperature: 30 C.
Description: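 Multiplexed protein stability (MPS) profiling in S. cerevisiae. Random 12-aa peptides (tFT-X12 library) are fused to the C-terminus of a sfGFP-mCherry tandem fluorescent timer, after mCherry and a GGGS linker. Cells are FACS-sorted into 8 mCherry/sfGFP bins and deep-sequenced. The protein stability index (PSI) is the read-weighted bin average, scaled from 0 (unstable) to 1 (stable). Only peptides with >10 reads are reported; cells were grown at 30 °C in SC-His with glucose.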
Work on GVDGVLGGWGCG yielded a protein stability index of 0.786 ± 0.1.
With GVDVSCVSPFGG the protein stability index was 0.705 ± 0.03.
GVECGSVCGGGG was tested, and the protein stability index was 0.651 ± 0.013.
In the case of GVEFKVVSFVVD, the protein stability index is reported as 0.646 ± 0.094.
GVEVSVFFFHFL showed a protein stability index of 0.576 ± 0.097.
For GVFCWVGLSAFL, the protein stability index was 0.5866 ± 0.004.
Sequence GVGGGEECHGVG has a protein stability index of 0.556 ± 0.018.
GVGGGGACRPVG showed a protein stability index of 0.709 ± 0.15.
In the case of GVGGGMGMGERW, the protein stability index is reported as 0.788 ± 0.18.
GVGGGMWCGFGV gave a protein stability index of 0.701 ± 0.074.
Work on GVGLKMLSVGDI yielded a protein stability index of 0.6119 ± 0.002.
GVGLSGVGGLGR was tested, and the protein stability index was 0.6439 ± 0.004.
For GVGSVADWGGVG, the protein stability index was 0.599 ± 0.018.
In the case of GVGVHAASGGEN, the protein stability index is reported as 0.723 ± 0.009.
GVGVLGGGYMCL gave a protein stability index of 0.647 ± 0.069.
GVGWFGRGTVGW was tested, and the protein stability index was 0.676 ± 0.035.
GVGYCCVSGGLG gave a protein stability index of 0.722 ± 0.011.
With GVIGPFSHDGCA the protein stability index was 0.662 ± 0.021.
In the case of GVILPVVKARLA, the protein stability index is reported as 0.472 ± 0.042.
GVLGLDLSVVGG showed a protein stability index of 0.716 ± 0.035.
GVLGSIQLFLGI gave a protein stability index of 0.699 ± 0.0091.
GVLPWQYSSFLS showed a protein stability index of 0.694 ± 0.058.
Work on GVLRGNRITECF yielded a protein stability index of 0.716 ± 0.049.
GVLVAFLWGESV showed a protein stability index of 0.593 ± 0.018.
For GVRDGGTRGSEG, the protein stability index was 0.7012 ± 0.0055.
For GVRGGWVVNRGV, the protein stability index was 0.732 ± 0.026.
GVRLSPTACSSI showed a protein stability index of 0.678 ± 0.071.
In the case of GVRRAAFAKYGG, the protein stability index is reported as 0.655 ± 0.0071.
GVRRSQSCPVRS was tested, and the protein stability index was 0.7065 ± 0.0051.
With GVRYFKWGCTHG the protein stability index was 0.684 ± 0.029.
In the case of GVSAPGDAGAVP, the protein stability index is reported as 0.654 ± 0.015.
Sequence GVSCGWVAHARW has a protein stability index of 0.694 ± 0.061.
In the case of GVSSGVSFVLGH, the protein stability index is reported as 0.702 ± 0.0083.
For GVSVGGSSGGSG, the protein stability index was 0.6868 ± 0.0048.
Work on GVSVSSSFLNGC yielded a protein stability index of 0.669 ± 0.019.
GVTGGWVVNRGV gave a protein stability index of 0.7054 ± 0.007.
GVTGRGVSRVYG gave a protein stability index of 0.671 ± 0.013.
Work on GVTLKSPTGRVF yielded a protein stability index of 0.666 ± 0.097.
For GVVGGVGGFFGC, the protein stability index was 0.754 ± 0.0013.
GVVGLEVLGRWG was tested, and the protein stability index was 0.687 ± 0.047.
GVVMMGERGGER gave a protein stability index of 0.685 ± 0.049.
Work on GVWREVGNIEEV yielded a protein stability index of 0.701 ± 0.0099.
With GVWWRRVVFGRR the protein stability index was 0.696 ± 0.075.
GWCTLASGLFTT gave a protein stability index of 0.673 ± 0.1.
Sequence GWGGVWGRVWWR has a protein stability index of 0.563 ± 0.05.
GWGKWGVGIGRG was tested, and the protein stability index was 0.694 ± 0.032.
For GWIAEFGLAGGP, the protein stability index was 0.661 ± 0.0089.
In the case of GWLGPGCVGRMQ, the protein stability index is reported as 0.733 ± 0.068.
GWPLWGAVRGFW showed a protein stability index of 0.71 ± 0.035.
GWPVGSLKTPCR gave a protein stability index of 0.726 ± 0.046.
In the case of GWRFGKVCGLGG, the protein stability index is reported as 0.726 ± 0.07.
In the case of GWSTKSTYHKPT, the protein stability index is reported as 0.732 ± 0.025.
For GYFSTFIKSSML, the protein stability index was 0.715 ± 0.029.
For GYKLLIEGNWEV, the protein stability index was 0.756 ± 0.025.
Sequence GYRRTGGLHGVV has a protein stability index of 0.716 ± 0.034.
With GYRSLADSIDLL the protein stability index was 0.7244 ± 0.0066.
GYRSSWRALRVG showed a protein stability index of 0.564 ± 0.076.
Work on GYTDPYPAAAPS yielded a protein stability index of 0.639 ± 0.056.
GYVHPSWLWANT gave a protein stability index of 0.732 ± 0.033.
With GYVVVGGGGWLG the protein stability index was 0.6754 ± 0.0025.
Sequence GYYPVALDYKLR has a protein stability index of 0.708 ± 0.05.
HCFASLITSIVH gave a protein stability index of 0.535 ± 0.025.
In the case of HCSVSGLQLFMD, the protein stability index is reported as 0.699 ± 0.019.
With HCYKRGSCTSLI the protein stability index was 0.631 ± 0.087.
HDPRVGDNAHFV showed a protein stability index of 0.641 ± 0.099.
Sequence HFFSFLACFVDL has a protein stability index of 0.632 ± 0.054.
Work on HFLPFSLLLFPP yielded a protein stability index of 0.755 ± 0.14.
Sequence HFPLRIYSPNGP has a protein stability index of 0.697 ± 0.095.
Work on HFPLSLSPPPPP yielded a protein stability index of 0.721 ± 0.032.
With HFQASRLLCEGD the protein stability index was 0.638 ± 0.026.
HFVAALVLLTLD was tested, and the protein stability index was 0.72 ± 0.17.
HFVAPLSPRGSL gave a protein stability index of 0.633 ± 0.038.
HGAPLPTSAPKH gave a protein stability index of 0.7271 ± 0.0031.
Sequence HGTAQGVRRQGV has a protein stability index of 0.711 ± 0.16.
Work on HGWACSRSPCAV yielded a protein stability index of 0.756 ± 0.048.
For HHAHRLPTLATS, the protein stability index was 0.693 ± 0.074.
HHAKWAHGTPAQ was tested, and the protein stability index was 0.681 ± 0.022.
HHSLLLPPPPPP showed a protein stability index of 0.673 ± 0.019.
HILDDHVRISNA gave a protein stability index of 0.685 ± 0.0096.
HIPHSKPRTSLP gave a protein stability index of 0.734 ± 0.048.
Work on HKDVRGRSLSRM yielded a protein stability index of 0.7183 ± 0.0024.
For HKENTKEKKKRE, the protein stability index was 0.693 ± 0.043.
HLFPSPPPSTLP was tested, and the protein stability index was 0.495 ± 0.045.
HLFVPGAFFFFS was tested, and the protein stability index was 0.718 ± 0.073.
With HLGIKGFHIFGY the protein stability index was 0.69 ± 0.0071.
HLIPSPPTPPRP was tested, and the protein stability index was 0.664 ± 0.0072.
HLKPTPPLPPNT gave a protein stability index of 0.67 ± 0.017.
Sequence HLLPRPIRPSTP has a protein stability index of 0.664 ± 0.074.
With HLLSPPLPPSPA the protein stability index was 0.728 ± 0.039.
In the case of HLPPLPRPPSLT, the protein stability index is reported as 0.7049 ± 0.0069.
With HLPSLLRPPFLL the protein stability index was 0.7038 ± 0.0018.
HLPSPSLPSPYF gave a protein stability index of 0.7648 ± 0.0017.
HLPSSRHNPLQN showed a protein stability index of 0.695 ± 0.037.
HLPWTGTPHATV gave a protein stability index of 0.737 ± 0.029.
In the case of HLRSALSVHPTL, the protein stability index is reported as 0.707 ± 0.051.
HLSPPPLMPPCC gave a protein stability index of 0.759 ± 0.067.
With HNDYKGSQIDNG the protein stability index was 0.573 ± 0.046.
HNIQHKIHTKSR showed a protein stability index of 0.761 ± 0.039.

From the supplement of paper PMC10724198
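Also: PSI is a weighted mean of sequencing reads over stability bins, variants kept only with over 10 reads, mCherry proximal and sfGFP distal, peptide attached via GGGS linker.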
